Laboratory results taken from publication PMC11746154 (2023).

B1: Gal4AD-Rec104 [S. cerevisiae] / LexA-Rec102 [S. cerevisiae] (parent complex)
chain 1: MSIEEEDTNKITCTQDFLHQYFVTERVSIQFGLNNKTVKRINKDEFDKAVNCIMSWTNYPKPGLKRTASTYLLSNSFKKSATVSLPFILGDPVCMPKRVESNNNDTCLLYSDTLYDDPLIQRNDQAGDEIEDEFSFTLLRSEVNEIRPISSSSTAQILQSDYSALMYERQASNGSIFQFSSP
chain 2: MARDITFLTVFLESCGAVNNDEAGKLLSAWTSTVRIEGPESTDSNSLYIPLLPPGMLKIKLNFKMNDRLVTEEQELFTKLREIVGSSIRFWEEQLFYQVQDVSTIENHVILSLKCTILTDAQISTFISKPRELHTHAKGYPEIYYLSELSTTVNFFSKEGNYVEISQVIPHFNEYFSSLIVSQLEFEYPMVFSMISRLRLKWQQSSLAPISYALTSNSVLLPIMLNMIAQDKSSTTAYQILCRRRGPPIQNFQIFSLPAVTYNK

Variants of: B1
Assay: Y2H β-galactosidase assay; parent: 0.97; read off a plot

| Variant | response [normalized β-gal units] |
| --- | --- |
| chain 1 Y21A | ~1.1 |
| chain 1 L33A | ~0.87 |
| chain 1 V50A | ~1.2 |
| chain 1 I53A | ~1.1 |
| chain 1 T12A | ~0.75 |
| chain 1 I11A | ~0.93 |
| chain 1 K10A | ~0.83 |
| chain 1 F31A | ~1.6 |
| chain 1 L18A | ~0.75 |
| chain 1 F17A | ~0.8 |

Variants of: B1
Assay: as above
Remark: another data set of the same source

| Variant | response [normalized β-gal units] |
| --- | --- |
| chain 2 F11A | ~0.9 |
| chain 2 F156A | ~1.5 |
| chain 2 V10A | ~0.6 |
| chain 2 Q183A | ~0.01 |
| chain 2 L179A | ~0.1 |
| chain 2 L8A | ~1.4 |
| chain 2 S182A | ~0.62 |
